Laboratory results published in patent US20220098328A1, “ANTIBODIES TO M(H)DM2/4 AND THEIR USE IN DIAGNOSING AND TREATING CANCER” (NomoCan Pharmaceuticals LLC, priority 2017, published 2022).
Substitutions are numbered along the chain they refer to. Entries after “also recorded” stand apart in the source; their conditions may differ.

Legend:
Type in all cases: cell-based
[1] = tested on: mouse Lewis Lung LL/2 cancer cells; assay: Flow cytometry (EDTA vs trypsin, intact vs permeabilized); details: for % cells stained: 5 μg/ml antibody; for staining of trypsin-treated permeabilized cells: reduction in binding after trypsin vs reactivity with intracellular target
Description: Flow Cytometry Methodology: Cells that had been allowed to grow to about 80% confluency in 25 cm^2 tissue culture flasks were released with either EDTA (10 mmols; pH7.2; 5 min, 37° C.) or Trypsin (Gibco TrypLE Express), fixed with freshly made 4% buffered (pH 7.4) paraformaldehyde for 1 h at room temperature, washed several times with a large volume of ice-cold PBS, and blocked for 30 minutes at room temperature with 5% human serum albumin in PBS (intact, non-permeabilized cells). After establishing viability, the cell number was adjusted to 10^6 cells/ml and kept in ice-cold PBS until staining. Another set of the same cells was released with either EDTA or Trypsin and fixed with 4% buffered paraformaldehyde as above, then washed and blocked with 5% human serum albumin in PBS, and was treated separately with Triton X-100 (0.1% in PBS) (International Biotechnologies Inc. 07100) for 5 minutes at room temperature for membrane permeabilization. After washing off the Triton X-100 solution with PBS the cells were adjusted to 10^6 cells/ml and stored in ice-cold PBS. Cells (10^6/ml) from each preparation were then incubated either with 5 μg/ml of mAb to Na+/K+ ATPase α-1 (Abcam, Cat. No. ab2826), 5 μg/ml of mAb NMC-103, or 5 μg/ml of mAb NMC-204 for 90 min at room temperature. Following primary antibody incubation, cells were washed 3 times with ice-cold PBS followed by incubation with rabbit anti-mouse PE-Cy5 labeled secondary antibody (PE-Cy5-RaM IgG (H&L); Invitrogen, Cat. No. M35018) at room temperature. Sixty minutes later the cells were washed 3 times with PBS and subjected to flow cytometry analysis (BD Canto Flow Cytometry). Controls to establish background fluorescence included the analysis of samples of unstained cells as well as cells that had been processed with secondary antibody under the same conditions as used in the experimental samples.
Cells that had been allowed to grow to about 80% confluency in 75 cm^2 tissue culture flasks were released with either EDTA (10 mmols; pH 7.2; 5 min, 37° C.) or Trypsin (Gibco TrypLE Express), washed several times with ice-cold PBS, and blocked for 20 minutes on ice with 5% human serum albumin in PBS (intact, non-permeabilized cells). After establishing viability, the cell number was adjusted to 10^6 cells/ml and kept in ice-cold PBS until staining. Cells were then incubated with primary antibodies NMC-H103 (VH4/VK3) or NMC-C303 (1 μg/ml) for 30 minutes on ice. Following primary antibody incubation, cells were washed 3 times with ice-cold PBS, followed by incubation with goat anti-human PE labeled secondary antibody (Life technologies H10104) on ice for 20 minutes. Cells were then washed 3 times with PBS and incubated with 7AAD (5 μl/[…] of buffer) before flow cytometry analysis using Fortessa 5.

[2] = tested on: human pancreatic cancer MIA PaCa-2 cells; assay: Cell-ELISA on intact cells; details: for binding to intact, EDTA-released MiaPaCa-2 cells, cell-ELISA: EDTA 10 mmols, pH 7.2, 5 min, 37° C.; for relative binding (reactivity) to intact cells, cell-ELISA: MIA PaCa-2, mAb 1 μg/mL, fixed, non-permeabilized cells; for binding to intact MIA PaCa-2 cells when competed with NMC-P2 peptide / binding to intact MIA PaCa-2 cells when competed with soluble NMC-P1 peptide: cell-ELISA peptide competition
Description: (§1) Cell-ELISA Methodology: 8,000-10,000 cells/well of a 96-well microplate were grown overnight. The next day, unbound cells were washed off with sterile 1×PBS. The cells in each well were fixed with freshly prepared 4% buffered paraformaldehyde (pH 7.2) for 1 hour followed by 3 washes with 1×PBS. The wells were then blocked with 5% BSA in PBS (100 μl/well) for 2 hours at room temperature. Microplate wells were then washed 5 times with 300 μl of ice cold 1×PBS. MAbs NMC-103, NMC-204 or NMC-303 at 1 μg/mL in 1% BSA/PBS were then incubated with various cancer or normal untransformed cells for 2 hours at room temperature. Wells were then washed with 300 μl of ice-cold 1×PBS for 5 times and corresponding secondary antibody HRP-GaM F(ab′)2 diluted 1:2500 or 1:5000 in PBS with 1% BSA were added at 100 μl/well for 1 hour at room temperature followed by washing 5 times with 300 μl of ice-cold 1×PBS. TMB Substrate Solution (1-Step™ Ultra TMB-ELISA, ThermoFisher, Cat. No. 34028) was then added at 50 μL to each microplate well and incubated at room temperature for 30 minutes. The reaction was stopped by addition of 50 μL of stop solution (ThermoFisher, Cat. No. SS04) to each well and absorbance of each well was measured at OD450 nm. The absorbance value of each experimental well was corrected for the absorbance value obtained from wells treated with isotype-identical mAbs included in each experiment. The results are thus expressed as “relative binding”.
(§2) In a 96-well microplate, 15,000 cells/well were cultured overnight. The next day, unbound cells were washed off with sterile 1×PBS. The cells in each well were fixed with freshly prepared 4% buffered paraformaldehyde (pH 7.2) for 1 hour, followed by 3 washes with 1×PBS. The wells were then blocked with 5% BSA in PBS (100 μl/well) for 2 hours at room temperature. Microplate wells were then washed 5 times with 300 μl of ice cold 1×PBS. Monoclonal antibodies NMC-H103 (VH4/VK3) or NMC-C303 at 5 μg/mL in 1% BSA/PBS were then incubated with various cancer cells for 2 hours at room temperature. Wells were then washed with 300 μl of ice-cold 1×PBS for 5 times and corresponding secondary antibody HRP-GaH F(ab′)2 diluted 1:2000 or 1:4000 in PBS with 1% BSA were added at 100 μl/well for 1 hour at room temperature followed by washing 5 times with 300 μl of ice-cold 1×PBS. TMB Substrate Solution (1-Step™ Ultra TMB-ELISA, ThermoFisher, Cat. No. 34028) was then added at 50 μL to each microplate well and incubated at room temperature for 30 minutes. The reaction was stopped by addition of 50 μL of stop solution (ThermoFisher, Cat. No. SS04) to each well and absorbance of each well was measured at OD450 nm. The absorbance value of each experimental well was corrected for the absorbance value obtained from wells treated with isotype-identical mAbs included in each experiment.

[3] = tested on: mouse pancreatic Panc02 cells; assay: Cell-ELISA on intact cells; details: for relative binding (reactivity) to intact cells, cell-ELISA: Panc02, mAb 1 μg/mL, fixed, non-permeabilized cells
Description: as §1, §2

[4] = tested on: mouse Lewis Lung LL/2 cells; assay: Cell-ELISA on intact cells; details: for relative binding (reactivity) to intact cells, cell-ELISA: LL/2, mAb 1 μg/mL, fixed, non-permeabilized cells
Description: as §1, §2

[5] = tested on: primary patient-derived human ovarian cancer OVCA4 cells; assay: Cell-ELISA on intact cells; details: for relative binding (reactivity) to intact cells, cell-ELISA: OVCA4, mAb 1 μg/mL, fixed, non-permeabilized cells
Description: as §1, §2

[6] = tested on: mouse colon cancer MC-38 cells; assay: Cell-ELISA on intact cells; details: for relative binding (reactivity) to intact cells, cell-ELISA: MC-38, mAb 1 μg/mL, fixed, non-permeabilized cells
Description: as §1, §2

[7] = tested on: human breast cancer MCF-7 cells; assay: Cell-ELISA on intact cells; details: for relative binding (reactivity) to intact cells, cell-ELISA: MCF-7, mAb 1 μg/mL, fixed, non-permeabilized cells
Description: as §1, §2

[8] = EDTA-treated permeabilized cells (Triton X-100)

B1: NMC-103: mouse monoclonal antibody of the IgG1 isotype that binds to NMC-P1 (SEQ ID NO:1); VH SEQ ID NO:36, VL SEQ ID NO:37 (antibody, V domains shown)
VH: EVQLQESGGGLVQPGGSLRLSCTTSGFTFTHYYMSWVRQPPGKALEWLGFIRNKAKGYTAEYSASVKGRFTISRDNSQSILYLQMNTLRPEDSATYYCARDIGDNWGQGTLVTVSS
VL: DIVMTQAAFSNPVTLGTSASISCRSSKNLLHSNGITYLYWYLQRPGQSPQLLISRVSNLASGVPNRFSGSESGTDFTLRISRVEAEDVGVYFCAQLLELPYTFGGGTKLEIK
modifications: mAb NMC-103 Heavy Chain Variable Region; mAb NMC-103 Light Chain Variable Region
% cells stained ([1]; EDTA-treated intact cells): 70.4% | % cells stained [1, 8]: 75.8% | staining of trypsin-treated permeabilized cells [1]: compensated | % cells stained ([1]; trypsin-treated intact cells): 36.8% | binding to intact, EDTA-released MiaPaCa-2 cells, cell-ELISA [2]: bound | relative binding (reactivity) to intact cells, cell-ELISA [2]: reactivity | binding to intact MIA PaCa-2 cells after pre-incubation with full-length recombinant HDM2 ([2]; cell-ELISA competition): reduced | binding to intact MIA PaCa-2 cells when competed with NMC-P2 peptide [2]: did not have any effect | binding to intact MIA PaCa-2 cells when competed with soluble NMC-P1 peptide [2]: completely abolished | relative binding (reactivity) to intact cells, cell-ELISA [3]: reactivity | relative binding (reactivity) to intact cells, cell-ELISA [4]: reactivity | relative binding (reactivity) to intact cells, cell-ELISA [5]: reactivity | relative binding (reactivity) to intact cells, cell-ELISA [6]: reactivity | relative binding (reactivity) to intact cells, cell-ELISA [7]: reactivity

B2: NMC-H103 (VH4/VK3): humanized NMC-103 variant, human IgG1, VH4 (SEQ ID NO:299) and VK3 (SEQ ID NO:297) (antibody, V domains shown)
VH: B1 VH with Q5V, G16P, P40A, A44G, Q78K, I80T, T87S, P90A, S93T, T95V
VL: B1 VL with A7T, A8P, F9L, N11S, T17Q, S18P, R44K, N65D, R79K, L109V
modifications: human IgG1 constant regions lacking entries; mAb NMC-H103.VH4Heavy Chain Variable Region; mAb NMC-H103.VK3Light Chain Variable Region
binding to live cells briefly treated with trypsin, flow cytometry ([1]; 7AAD negative): reduced | binding to live (7AAD negative) cells, flow cytometry ([1]; antibody 1 μg/ml): binding | binding to intact, un-permeabilized cells, cell-based ELISA ([2]; MIAPaCa-2 pancreatic cancer cells, mAb 5 μg/mL): binding | binding to intact, un-permeabilized cells, cell-based ELISA ([3]; Panc-2 pancreatic cancer cells, mAb 5 μg/mL): binding | OD reading / binding after pre-incubation of antibody with NMC-P1 ([4]; LL/2 cells, antibody 5 μg/mL, NMC-P1 at ×10 the concentration of mAbs): 1.09 OD450 (absorbance, unitless) | binding to intact, un-permeabilized cells, cell-based ELISA ([5]; OVCA-4 ovarian cancer cells, mAb 5 μg/mL): binding | binding to intact, un-permeabilized cells, cell-based ELISA ([6]; MC-38 colon cancer cells, mAb 5 μg/mL): binding | binding to intact, un-permeabilized cells, cell-based ELISA ([7]; MCF-7 breast cancer cells, mAb 5 μg/mL): binding

B3: NMC-204: mouse monoclonal antibody of the IgG3 isotype that binds to NMC-P2 (SEQ ID NO:2); VH SEQ ID NO:38, VL SEQ ID NO:39 (antibody, V domains shown)
VH: EVQLQESGSVLVRPGASVKLSCKASGDTLSGSWMHWAMQRPGQGLEWIGEIHLNRGTTNYNEKFKGKATVTVDTSSSTAYVDLSSLTSEDSAVYYCARSPGFAYWGQGTLVTVSA
VL: GIVMTQAAPSVPVTPGESVSISCRSSKSLLHSNGNSYLYWFLQRPGQSPQLLIYRMSNLASGVPDRFSGSGSGTAFTLRITRVEAEDVGVYYCMQHLEYPFTFGSGTKLEIK
modifications: mAb NMC-204 Heavy Chain Variable Region; mAb NMC-204 Light Chain Variable Region
% cells stained ([1]; EDTA-treated intact cells): 51.2% | % cells stained [1, 8]: 52.85% | staining of trypsin-treated permeabilized cells [1]: compensated | % cells stained ([1]; trypsin-treated intact cells): 27% | binding to intact, EDTA-released MiaPaCa-2 cells, cell-ELISA [2]: bound | relative binding (reactivity) to intact cells, cell-ELISA [2]: reactivity; also recorded: reacted | binding to intact MIA PaCa-2 cells when competed with NMC-P2 peptide [2]: competed | binding to intact MIA PaCa-2 cells when competed with soluble NMC-P1 peptide [2]: not with NMC-P1 | relative binding (reactivity) to intact cells, cell-ELISA [3]: reactivity | relative binding (reactivity) to intact cells, cell-ELISA [4]: reactivity | relative binding (reactivity) to intact cells, cell-ELISA [5]: reactivity | relative binding (reactivity) to intact cells, cell-ELISA [6]: reactivity | relative binding (reactivity) to intact cells, cell-ELISA [7]: reactivity
